Results as given in US20020164716A1 (GENETICS INSTITUTE, published 2002).

T1: TNF-R1-DD ligand protein encoded by clone 1TU (Homo sapiens (Human), UniProt Q8TEL6 488-797)
T1 construct: partial clone
T1 sequence: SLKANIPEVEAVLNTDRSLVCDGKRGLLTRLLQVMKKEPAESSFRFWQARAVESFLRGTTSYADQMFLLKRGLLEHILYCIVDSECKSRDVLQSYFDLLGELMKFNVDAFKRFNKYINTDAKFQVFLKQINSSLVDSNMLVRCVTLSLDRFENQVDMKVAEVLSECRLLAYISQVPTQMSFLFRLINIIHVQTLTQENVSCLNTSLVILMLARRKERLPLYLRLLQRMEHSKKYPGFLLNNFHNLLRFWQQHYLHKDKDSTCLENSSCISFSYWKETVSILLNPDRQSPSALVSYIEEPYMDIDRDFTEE

T2: TNF-R1-DD ligand protein encoded by clone 3DD (Homo sapiens (Human), UniProt Q9H3U1 807-944)
T2 construct: partial clone
T2 sequence: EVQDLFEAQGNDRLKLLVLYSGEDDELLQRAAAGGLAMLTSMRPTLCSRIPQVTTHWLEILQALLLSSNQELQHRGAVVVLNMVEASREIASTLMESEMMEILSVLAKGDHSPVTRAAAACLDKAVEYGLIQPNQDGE

B1: LexA-TNF-R1-DD fusion protein (death domain of the P55 type 1 TNF receptor) (receptor, UniProt P19438 355-442, looked up)
chain: DPATLYAVVENVPPLRWKEFVRRLGLSDHEIDRLELQNGRCLREAQYSMLATWRRRTPRREATLELLGRVLRDMDLLGCLEDIEEALC
notes: range 326-413; also called TNF-RDD; TNF-R death domain; not shown: LexA, bait fusion partner from plasmid pEG202

Tests used:
[1] = biological target: T3, TNF-R1-DD ligand protein encoded by clone 27TU (Homo sapiens (Human), UniProt Q8WXG6 1002-1647); test: yeast interaction trap, panel of baits
T3 construct: partial clone
Description: (§1) The ability of these clones to bind the TNF-R death domain was compared to their binding to the intracellular domain of the second TNF-R (TNF-R p75IC), the entire intracellular domain of TNF-R (TNF-R p55IC), the death domain of the fas antigen (which shares 28% identity with TNF-R-DD) (FasDD), the Drosophila transcription factor bicoid, and a region of the IL-1 receptor known to be critical for signalling (IL-1R₄₇₇₋₅₂₇).

[2] = biological target: T4, protein encoded by clone 15TU (Homo sapiens (Human), UniProt Q8WXG6 1329-1647); test: yeast interaction trap, panel of baits
T4 construct: The limits 289-607 are printed as approximate
Description: as §1

[3] = biological target: T1, TNF-R1-DD ligand protein encoded by …; test: yeast interaction trap, panel of baits
Description: as §1

[4] = biological target: T5, TNF-R1-DD ligand protein encoded by clone 2DD (Homo sapiens (Human), UniProt Q8WXG6 1217-1647); test: yeast interaction trap, panel of baits
T5 construct: partial clone of a longer protein
Description: (§2) A yeast genetic selection method, the “interaction trap” [Gyuris et al, Cell 75:791-803, 1993, which is incorporated herein by reference], was used to screen WI38 cell cDNA libraries (preparation, see below) for proteins that interact with the death domain of the P55 type 1 TNF receptor (TNF-R1-DD). A polynucleotide encoding amino acids 326 to 413 of the P55 type TNF receptor, TNF-R1-DD, was obtained via the polymerase chain reaction (PCR) using a grafting method. This TNF-R1-DD DNA was then cloned into pEG202 by BamHI and SalI sites, generating the bait plasmid, pEG202-TNF-R1-DD. This plasmid contains the HIS3 selectable marker, and expression of the bait, the LexA-TNF-R1-DD fusion protein, is from the strong constitutive ADH1 promoter. To create the reporter strain carrying the bait protein, yeast strain EGY48, containing the reporter sequence LexAop-Leu2 in place of the chromosomal LEU2, was transformed with pEG202-TNF-R1-DD and pSH18-34 (Ura+), which carries another reporter sequence, LexAop-lacZ. For screening cDNAs encoding proteins that interact with TNF-R1-DD, the expression vector pJG4-5 (TRP1), containing the WI38 cell cDNA library (see below for the cDNA library construction), was transformed into the above strain (EGY48/pEG202-TNF-R1-DD/pSH18-34) according to the method described by Gietz et al., Nucleic Acids Res., 20:1425 (1992).
(§3) The clones “2DD,” “3DD” and “20DD” were chosen for further analysis. Library vector pJG4-5 containing these clones sequences were rescued from yeast by transforming the total yeast DNAs into the E. coli strain KC8 and selecting for growth on Trp-ampicillin plates.

[5] = biological target: T2, TNF-R1-DD ligand protein encoded by …; test: yeast interaction trap, panel of baits
Description: as §2, §3

[6] = biological target: T4, protein encoded by clone 15TU; test: yeast interaction trap, wild type against death domain mutants
[7] = biological target: T1, TNF-R1-DD ligand protein encoded by …; test: as above
[8] = biological target: MBP protein (UniProt P0AEX9 27-392 = MBP); test: pull-down on glutathione beads, Western blot with anti-MBP antibody
Description: The reaction ws performed at 4° C. for 2 hours and centrifuged to remove unbound fraction (Unbound). The beads were then washed with 500 μl binding buffer four times and resuspended into SDS-sample buffer (Bound).

[9] = biological target: T3, TNF-R1-DD ligand protein encoded by …; test: yeast interaction trap, death domain mutants
Description: (§4) The ability of each clone to interact with four single-site mutations in the TNF-R death domain (each known to abolish signalling) was measured.

[10] = biological target: T4, protein encoded by clone 15TU; test: yeast interaction trap, death domain mutants
Description: as §4

[11] = biological target: T1, TNF-R1-DD ligand protein encoded by …; test: yeast interaction trap, death domain mutants
Description: as §4

[12] = biological target: B1; test: yeast interaction trap, panel of baits
Description: as §2, §3

T3 sequence (Q8WXG6 other isoform, or with tags, fused parts or gaps): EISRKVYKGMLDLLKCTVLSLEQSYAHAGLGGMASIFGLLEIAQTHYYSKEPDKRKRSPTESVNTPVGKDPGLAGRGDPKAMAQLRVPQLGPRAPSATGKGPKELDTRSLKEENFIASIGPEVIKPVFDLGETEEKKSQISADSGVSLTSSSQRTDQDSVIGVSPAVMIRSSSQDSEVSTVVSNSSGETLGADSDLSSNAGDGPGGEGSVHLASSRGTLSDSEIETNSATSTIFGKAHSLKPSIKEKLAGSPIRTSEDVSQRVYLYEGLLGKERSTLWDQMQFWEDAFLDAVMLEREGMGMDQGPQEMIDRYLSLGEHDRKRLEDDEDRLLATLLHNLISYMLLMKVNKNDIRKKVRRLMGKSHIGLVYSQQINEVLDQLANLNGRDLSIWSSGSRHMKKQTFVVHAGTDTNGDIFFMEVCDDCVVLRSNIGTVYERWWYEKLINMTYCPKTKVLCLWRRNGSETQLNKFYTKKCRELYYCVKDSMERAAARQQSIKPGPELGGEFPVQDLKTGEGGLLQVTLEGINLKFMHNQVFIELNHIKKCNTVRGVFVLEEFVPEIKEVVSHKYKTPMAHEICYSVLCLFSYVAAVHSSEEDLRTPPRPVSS
T4 sequence (Q8WXG6 1329-1647): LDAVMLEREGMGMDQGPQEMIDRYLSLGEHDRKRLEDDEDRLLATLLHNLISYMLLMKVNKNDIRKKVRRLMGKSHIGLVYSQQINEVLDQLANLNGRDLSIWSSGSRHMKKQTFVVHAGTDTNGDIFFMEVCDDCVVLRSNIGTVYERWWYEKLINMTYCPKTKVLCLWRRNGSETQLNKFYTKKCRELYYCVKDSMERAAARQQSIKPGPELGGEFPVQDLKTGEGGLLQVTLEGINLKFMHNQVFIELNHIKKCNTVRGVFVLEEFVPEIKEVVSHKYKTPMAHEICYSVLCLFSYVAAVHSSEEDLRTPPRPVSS
T5 sequence (Q8WXG6 other isoform, or with tags, fused parts or gaps): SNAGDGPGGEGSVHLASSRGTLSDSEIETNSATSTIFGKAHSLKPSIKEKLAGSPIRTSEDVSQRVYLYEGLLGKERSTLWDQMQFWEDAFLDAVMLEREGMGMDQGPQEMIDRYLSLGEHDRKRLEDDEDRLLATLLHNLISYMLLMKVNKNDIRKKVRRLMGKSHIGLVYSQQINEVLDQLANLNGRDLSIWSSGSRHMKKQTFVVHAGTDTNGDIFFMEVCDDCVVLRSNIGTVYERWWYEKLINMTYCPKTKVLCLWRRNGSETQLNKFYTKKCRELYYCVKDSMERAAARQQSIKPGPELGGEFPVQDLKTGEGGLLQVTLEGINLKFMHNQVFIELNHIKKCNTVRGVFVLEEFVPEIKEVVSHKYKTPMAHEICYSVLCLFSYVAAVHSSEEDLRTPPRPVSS

Row | Binder | binding result [1] | binding result [9] | binding result [10] | binding result [11] | also measured
1 | entire intracellular domain of TNF-R (TNF-R p55IC) (receptor, UniProt P19438 233-455, looked up, domain: entire intracellular domain; also called TNF-R p55JC; cytoplasmic domain of the p55 TNF-R) MYRYQRWKSKLYSIVCGKSTPEKEGELEGTTTKPLAPNPSFSPTPGFTPTLGFSPVPSSTFTSSSTYTPGDCPNFAAPRREVAPPYQGADPILATALASDPIPNPLQKWEDSAHKPQSLDTDDPATLYAVVENVPPLRWKEFVRRLGLSDHEIDRLELQNGRCLREAQYSMLATWRRRTPRREATLELLGRVLRDMDLLGCLEDIEEALCGPAALPPAPSLLR | binds |  |  |  | binding result [2]: binds; binding result [3]: binds
2 | intracellular domain of the second TNF-R (TNF-R p75IC) (receptor, UniProt P20333 288-461, looked up, domain: intracellular domain; also called TNF-R p75JC) KKKPLCLQREAKVPHLPADKARGTQGPEQQHLLITAPSSSSSSLESSASALDRRAPTRNQPQAPGVEASGAGEARASTGSSDSSPGGHGTQVNVTCIVNVCSSSDHSSQCSSQASSTMGDTDSSPSESPKDEQVPFSKEECAFRSQLETPETLLGSTEEKPLPLGVPDAGMKPS | no binding |  |  |  | binding result [3]: no binding
3 | Drosophila transcription factor bicoid (other, UniProt P09081-2 2-160, looked up) AQPPPDQNFYHHPLPHTHTHPHPHSHPHPHSHPHPHHQHPQLQLPPQFRNPFDLLFDERTGAINYNYIRPYLPNQMPKPEELPDSLVMRRPRRTRTTFTSSQIAELEQHFLQGRYLTAPRLADLSAKLALGTAQVKIWFKNRRRRHKIQSDQHKDQSYE | no binding |  |  |  | binding result [2]: no binding
4 | death domain of the fas antigen (FasDD) (receptor, UniProt P25445 230-314, looked up, domain: death domain) SKYITTIAGVMTLSQVKGFVRKNGVNEAKIDEIKNDNVQDTAEQKVQLLRNWHQLHGKKEAYDTLIKDLKKANLCTLAEKIQTII | no binding |  |  |  | binding result [2]: no binding; binding result [3]: no binding
5 | B1 | binds |  |  |  | binding result [4]: binds; binding result [5]: binds; binding result [6]: binds; binding result [7]: binds
6 | TNF-R1-DD expressed as a GST fusion protein (receptor, range 326-413; Purified, bacterially expressed, held on glutathione beads; Numbering: see the note of m7; also called GST-TNF-R1-DD; GST/TNF-R1-DD; not shown: glutathione-S-transferase (GST) from a pGEX vector (Pharmacia)) DPATLYAVVENVPPLRWKEFVRRLGLSDHEIDRLELQNGRCLREAQYSMLATWRRRTPRREATLELLGRVLRDMDLLGCLEDIEEALC |  |  |  |  | binding result [8]: no binding (tested: 3 µg)
7 | TNF-R death domain mutant W378A (receptor, UniProt P19438 355-442, looked up, range 326-413; Numbering as printed, see the note of m7; not shown: LexA, bait fusion partner from plasmid pEG202) DPATLYAVVENVPPLRWKEFVRRLGLSDHEIDRLELQNGRCLREAQYSMLATARRRTPRREATLELLGRVLRDMDLLGCLEDIEEALC |  | binds | binds | binds | 
8 | TNF-R death domain mutant F345A (receptor, UniProt P19438 355-442, looked up, range 326-413; Numbering as printed, see the note of m7; not shown: LexA, bait fusion partner from plasmid pEG202) DPATLYAVVENVPPLRWKEAVRRLGLSDHEIDRLELQNGRCLREAQYSMLATWRRRTPRREATLELLGRVLRDMDLLGCLEDIEEALC |  | binds | binds | binds | 
9 | TNF-R death domain mutant L351A (receptor, UniProt P19438 355-442, looked up, range 326-413; Numbering as printed, see the note of m7; not shown: LexA, bait fusion partner from plasmid pEG202) DPATLYAVVENVPPLRWKEFVRRLGASDHEIDRLELQNGRCLREAQYSMLATWRRRTPRREATLELLGRVLRDMDLLGCLEDIEEALC |  | binds | binds | binds | 
10 | TNF-R death domain mutant I408A (receptor, UniProt P19438 355-442, looked up, range 326-413; Numbering as printed, see the note of m7; not shown: LexA, bait fusion partner from plasmid pEG202) DPATLYAVVENVPPLRWKEFVRRLGLSDHEIDRLELQNGRCLREAQYSMLATWRRRTPRREATLELLGRVLRDMDLLGCLEDAEEALC |  | binds | binds | binds | 
11 | TNF-R1-DD ligand protein encoded by clone 20DD (ligand, not shown: large carriers) EKPLHALLHGRGVCLNEKSYREQVKIERDSREHEEPTTSEMAEETYSPKIFRPKHTRISELKAEAVKKDRRKKLTQSKFVGGAENTAHPRIISEPEMRQESEQGPCRRHMEASLQELKASPRMVPRAVYLPNCDRKGFYKRKQCKPSRGRKRGICWCVDKYGMKLPGMEYVDGDFQCHTFDSSNVE |  |  |  |  | binding result [12]: binds
